# Experimental data: FireProtDB (doi:10.1021/bi0027783)
# Where “and” joins values, the source holds several entries; their conditions need not be identical. Equal values may be shown once.
# Settings: Allium sativum, reversible: yes, whole UniProt chain shown; for denaturant m value / denaturant midpoint (higher = more stable) / unfolding free energy: GdnHCl
# [1] = pH 5, Thermal, DSC, citrate phosphate 20 mM
# [2] = pH 5.5, Thermal, DSC, citrate phosphate 20 mM
# [3] = pH 5.8, Thermal, DSC, citrate phosphate 20 mM
# [4] = pH 6, Thermal, DSC, citrate phosphate 20 mM
# [5] = pH 7.5, 50.7 °C, Thermal, CD, PBS 20 mM
# [6] = pH 7.5, 53.3 °C, Thermal, CD, PBS 20 mM
# [7] = pH 7.5, 55.7 °C, Thermal, CD, PBS 20 mM
# [8] = pH 7.5, 56.3 °C, Thermal, CD, PBS 20 mM
# [9] = pH 7.5, 60.8 °C, Thermal, CD, PBS 20 mM
# [10] = pH 7.5, 64.2 °C, Thermal, CD, PBS 20 mM
# [11] = pH 7.5, 66.4 °C, Thermal, CD, PBS 20 mM
sequence,measurement,setting,value
RNILMNGEGLYAGQSLDVEPYHFIMQEDCN [wild type],Tm,[1],75.5 °C
same,unfolding enthalpy (van 't Hoff),[1],132 kcal/mol
same,Tm,[2],74.6 °C
same,unfolding enthalpy (van 't Hoff),[2],130 kcal/mol
same,Tm,[3],73.9 °C
same,unfolding enthalpy (van 't Hoff),[3],128 kcal/mol
same,Tm,[4],73.1 °C
same,unfolding enthalpy (van 't Hoff),[4],125 kcal/mol
same,Tm,"pH 7, Thermal, DSC, PBS 20 mM",70.9 °C
same,unfolding enthalpy (van 't Hoff),"pH 7, Thermal, DSC, PBS 20 mM",118 kcal/mol
same,denaturant m value,"pH 7.5, 10 °C, CD, PBS 20 mM",2.61 kcal/mol/M
same,denaturant midpoint (higher = more stable),"pH 7.5, 10 °C, CD, PBS 20 mM",4.9 M
same,unfolding free energy,"pH 7.5, 10 °C, CD, PBS 20 mM",12.8 kcal/mol
same,denaturant m value,"pH 7.5, 15 °C, CD, PBS 20 mM",2.23 kcal/mol/M
same,denaturant midpoint (higher = more stable),"pH 7.5, 15 °C, CD, PBS 20 mM",5.84 M
same,unfolding free energy,"pH 7.5, 15 °C, CD, PBS 20 mM",13 kcal/mol
same,denaturant m value,"pH 7.5, 20 °C, CD, PBS 20 mM",2.25 kcal/mol/M
same,denaturant midpoint (higher = more stable),"pH 7.5, 20 °C, CD, PBS 20 mM",5.84 M
same,unfolding free energy,"pH 7.5, 20 °C, CD, PBS 20 mM",13.1 kcal/mol
same,denaturant m value,"pH 7.5, 25 °C, CD, PBS 20 mM",2.3 kcal/mol/M
same,denaturant midpoint (higher = more stable),"pH 7.5, 25 °C, CD, PBS 20 mM",5.6 M
same,unfolding free energy,"pH 7.5, 25 °C, CD, PBS 20 mM",12.9 kcal/mol
same,denaturant m value,"pH 7.5, 30 °C, CD, PBS 20 mM",2.64 kcal/mol/M
same,denaturant midpoint (higher = more stable),"pH 7.5, 30 °C, CD, PBS 20 mM",4.62 M
same,unfolding free energy,"pH 7.5, 30 °C, CD, PBS 20 mM",12.2 kcal/mol
same,denaturant m value,"pH 7.5, 35 °C, CD, PBS 20 mM",3.21 kcal/mol/M
same,denaturant midpoint (higher = more stable),"pH 7.5, 35 °C, CD, PBS 20 mM",3.4 M
same,unfolding free energy,"pH 7.5, 35 °C, CD, PBS 20 mM",10.9 kcal/mol
same,denaturant m value,"pH 7.5, 40 °C, CD, PBS 20 mM",4 kcal/mol/M
same,denaturant midpoint (higher = more stable),"pH 7.5, 40 °C, CD, PBS 20 mM",2.41 M
same,unfolding free energy,"pH 7.5, 40 °C, CD, PBS 20 mM",9.65 kcal/mol
same,denaturant m value,"pH 7.5, 45 °C, CD, PBS 20 mM",3.89 kcal/mol/M
same,denaturant midpoint (higher = more stable),"pH 7.5, 45 °C, CD, PBS 20 mM",1.99 M
same,unfolding free energy,"pH 7.5, 45 °C, CD, PBS 20 mM",7.74 kcal/mol
same,denaturant m value,"pH 7.5, 50 °C, CD, PBS 20 mM",3.83 kcal/mol/M
same,denaturant midpoint (higher = more stable),"pH 7.5, 50 °C, CD, PBS 20 mM",1.5 M
same,unfolding free energy,"pH 7.5, 50 °C, CD, PBS 20 mM",5.75 kcal/mol
same,heat capacity change of unfolding,[5],3.64 kcal/mol/K
same,unfolding enthalpy (van 't Hoff),[5],115 kcal/mol
same,heat capacity change of unfolding,[6],3.59 kcal/mol/K
same,unfolding enthalpy (van 't Hoff),[6],118 kcal/mol
same,heat capacity change of unfolding,[7],3.5 kcal/mol/K
same,unfolding enthalpy (van 't Hoff),[7],124 kcal/mol
same,heat capacity change of unfolding,[8],3.4 kcal/mol/K
same,unfolding enthalpy (van 't Hoff),[8],136 kcal/mol
same,heat capacity change of unfolding,[9],3.32 kcal/mol/K
same,unfolding enthalpy (van 't Hoff),[9],142 kcal/mol
same,heat capacity change of unfolding,[10],3.25 kcal/mol/K
same,unfolding enthalpy (van 't Hoff),[10],153 kcal/mol
same,heat capacity change of unfolding,[11],3.2 kcal/mol/K
same,unfolding enthalpy (van 't Hoff),[11],173 kcal/mol
same,unfolding enthalpy (calorimetric),"pH 7.5, Thermal, DSC, PBS 20 mM",96.4 kcal/mol and 116 kcal/mol and 118 kcal/mol
same,Tm,"pH 8, Thermal, DSC, PBS 20 mM",69.2 °C
same,unfolding enthalpy (van 't Hoff),"pH 8, Thermal, DSC, PBS 20 mM",113 kcal/mol
